{"source": "patent US20250296971A1", "about": "“GASTRIC INHIBITORY PEPTIDE RECEPTOR LIGANDS” (priority 2021, published 2025)", "target": "T1, human GIPR (HEK-GIPR cells) (Homo sapiens, UniProt P48546)", "T1 construct": "host or cells: HEK293", "T1 sequence (P48546 22-466)": "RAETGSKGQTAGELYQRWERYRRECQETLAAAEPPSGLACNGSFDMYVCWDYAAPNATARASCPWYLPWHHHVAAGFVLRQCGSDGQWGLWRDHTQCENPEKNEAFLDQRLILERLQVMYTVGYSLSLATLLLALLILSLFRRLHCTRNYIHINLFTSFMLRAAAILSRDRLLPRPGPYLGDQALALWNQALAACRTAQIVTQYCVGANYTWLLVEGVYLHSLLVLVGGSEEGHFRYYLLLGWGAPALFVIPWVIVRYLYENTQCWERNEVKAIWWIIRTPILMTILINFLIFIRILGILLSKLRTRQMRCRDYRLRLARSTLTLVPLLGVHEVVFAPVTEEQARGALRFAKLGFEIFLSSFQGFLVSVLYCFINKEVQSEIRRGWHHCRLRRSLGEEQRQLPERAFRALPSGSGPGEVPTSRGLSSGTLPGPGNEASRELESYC", "test": "cAMP assay", "format": "cell-based", "conditions": "37° C., 30 min, cAMP-Glo", "procedure": "In order to determine the inhibitory or stimulatory activity of compounds according to the present invention of GIPR-expressing cells, a cAMP activity assay was established.\nHEK-GIPR cells were generated by InSCREENeX GmbH (Germany) using the targeting vector pTAR to insert the minimal CMV promoter upstream of the human GIPR cDNA by recombinase-mediated cassette exchange into the pre-tagged HEK293 cell line.\nHEK-GIPR cells were cultured in RPMI-1640 medium (Sigma-Aldrich, #R0883) including 10% fetal calf serum (FCS), 8 mM L-glutamine, 100 U/mL penicillin, 100 μg/mL streptomycin and 1 mg/mL Geneticin. Cells were detached with Accutase (Biolegend, #BLD-423201) and diluted in culture medium to a final concentration of 100,000 cells per mL. 100 μL of the cell suspension were transferred to white poly-L-lysine-coated 96-well plates with optical bottom (Nunc, #165306) and incubated overnight in a humidified atmosphere containing 5% CO2 at 37° C.\nFor cAMP detection, the cAMP-Glo™ Assay (Promega, #V1501) was employed. […] After 10 min of incubation, luminescence was read using a SpectraMax M5 Plate Reader (Molecular Devices).\nRelative luminescence values (RLU) were plotted against peptide concentration and four parameter logistic (4PL) curve fitting and calculations of EC50/pEC50 and IC50/pIC50, respectively, were performed using ActivityBase software."}
{"substance": "GIP(1-30) C-ter. ^natInDOTA", "values": [{"measurement": "Mean pEC50 ± SD", "value": "12.0 ± 0.1"}]}
